Assay results from publication PMC9482650, “Quantitative fragmentomics allow affinity mapping of interactomes” (Nature Communications, 2022).

Assays:
Assay in all cases: holdup assay
Design in all cases: key: below the threshold = too weak to quantify, mostly under pKd 3.1 to 4
[1] = target: MAGI2_3, Q86UL8
[2] = target: GRASP, Q7Z6J2
[3] = target: T1, NHERF3_1, Q5T2W1
T1 sequence (Q5T2W1 4-100, limits assumed, looked up): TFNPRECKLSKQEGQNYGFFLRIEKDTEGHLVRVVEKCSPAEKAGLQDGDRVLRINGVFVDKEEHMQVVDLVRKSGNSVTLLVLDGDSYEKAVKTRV

[4] = target: T2, DLG3_1, Q92796
T2 sequence (Q92796 125-227, limits assumed, looked up): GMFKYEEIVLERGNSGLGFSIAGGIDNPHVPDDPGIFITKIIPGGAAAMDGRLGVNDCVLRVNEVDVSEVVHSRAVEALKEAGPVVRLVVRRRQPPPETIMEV

[5] = target: T3, MPDZ_5, O75970
T3 sequence (O75970 695-796, limits assumed, looked up): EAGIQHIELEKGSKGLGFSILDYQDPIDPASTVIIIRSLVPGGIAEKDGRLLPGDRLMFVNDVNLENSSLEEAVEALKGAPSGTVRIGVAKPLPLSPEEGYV

[6] = target: GIPC2, Q8TF65
[7] = target: PDLIM1, O00151
[8] = target: T4, PARD3B_1, Q8TEW8
T4 sequence (Q8TEW8 196-299, limits assumed, looked up): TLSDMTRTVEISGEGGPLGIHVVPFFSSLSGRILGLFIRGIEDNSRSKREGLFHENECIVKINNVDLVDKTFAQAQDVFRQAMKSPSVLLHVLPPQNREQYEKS

[9] = target: Inadl_10, Q8NI35
[10] = target: GRIP2_3, Q9C0E4
[11] = target: SCRIB_2, Q14160
[12] = target: T5, LIN7A, O14910
T5 sequence (O14910 103-200, limits assumed, looked up): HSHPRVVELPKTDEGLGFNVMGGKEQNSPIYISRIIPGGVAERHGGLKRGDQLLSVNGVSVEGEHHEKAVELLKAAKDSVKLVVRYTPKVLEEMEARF

[13] = target: MAGI1_1, Q96QZ7
[14] = target: T6, RADIL, Q96JH8
T6 sequence (Q96JH8 971-1071, limits assumed, looked up): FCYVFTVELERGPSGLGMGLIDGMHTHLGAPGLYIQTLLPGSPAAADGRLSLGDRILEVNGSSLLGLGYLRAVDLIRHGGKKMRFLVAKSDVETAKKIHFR

[15] = target: DLG2_3, Q15700
[16] = target: T7, DFNB31_2, Q9P202
T7 sequence (Q9P202 274-371, limits assumed, looked up): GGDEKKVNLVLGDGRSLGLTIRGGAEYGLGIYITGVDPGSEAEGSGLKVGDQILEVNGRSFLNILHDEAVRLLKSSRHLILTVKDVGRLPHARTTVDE

[17] = target: CASK, O14936
[18] = target: T8, MPDZ_10, O75970
T8 sequence (O75970 1624-1722, limits assumed, looked up): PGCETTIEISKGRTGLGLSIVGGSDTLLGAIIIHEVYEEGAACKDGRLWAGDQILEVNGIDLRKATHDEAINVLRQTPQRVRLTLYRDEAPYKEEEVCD

[19] = target: FRMPD2_3, Q68DX3
[20] = target: T9, DFNB31_1, Q9P202
T9 sequence (Q9P202 135-233, limits assumed, looked up): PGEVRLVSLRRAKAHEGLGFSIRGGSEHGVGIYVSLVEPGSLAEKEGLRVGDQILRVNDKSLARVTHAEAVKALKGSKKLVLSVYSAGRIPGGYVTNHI

[21] = target: T10, FRMPD1, Q5SYB0
T10 sequence (Q5SYB0 52-145, limits assumed, looked up): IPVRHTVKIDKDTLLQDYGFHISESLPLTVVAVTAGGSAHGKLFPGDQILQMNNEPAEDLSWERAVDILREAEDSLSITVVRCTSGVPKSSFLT

[22] = target: GRID2IP_1, A4D2P6
[23] = target: Inadl_1, Q8NI35
[24] = target: SCRIB_1, Q14160
[25] = target: TJP2_1, Q9UDY2
[26] = target: Inadl_5, Q8NI35
[27] = target: IL16_3, Q14005
[28] = target: MAGI2_2, Q86UL8
[29] = plain residues with an end cap or a label only (N-terminal biotin on a linker: ahx)
[30] = plain residues with an end cap or a label only (N-terminal biotin on a linker: gsgsgs; C-terminal amide)

Chain of MAGI2_3, Q86UL8 (Q86UL8 600-682): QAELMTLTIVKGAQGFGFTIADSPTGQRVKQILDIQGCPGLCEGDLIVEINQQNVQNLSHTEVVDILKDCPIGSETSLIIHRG
Chain of Inadl_5, Q8NI35 (Q8NI35 673-780): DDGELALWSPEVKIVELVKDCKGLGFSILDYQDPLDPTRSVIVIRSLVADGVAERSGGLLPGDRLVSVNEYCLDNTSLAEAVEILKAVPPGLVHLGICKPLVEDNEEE
Chain of MAGI2_2, Q86UL8 (Q86UL8 410-522): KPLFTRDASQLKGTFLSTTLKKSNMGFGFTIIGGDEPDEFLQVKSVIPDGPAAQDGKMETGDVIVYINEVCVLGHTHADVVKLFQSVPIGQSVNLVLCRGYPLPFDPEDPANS
Chain of GIPC2, Q8TF65 (Q8TF65 112-203): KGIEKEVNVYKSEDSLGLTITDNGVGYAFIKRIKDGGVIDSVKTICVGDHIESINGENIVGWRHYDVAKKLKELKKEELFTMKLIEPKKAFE
Chain of TJP2_1, Q9UDY2 (Q9UDY2 24-128): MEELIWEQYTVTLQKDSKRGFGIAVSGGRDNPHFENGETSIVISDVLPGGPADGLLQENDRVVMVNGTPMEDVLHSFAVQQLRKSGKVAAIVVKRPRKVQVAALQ
Chain of GRIP2_3, Q9C0E4 (Q9C0E4 238-339): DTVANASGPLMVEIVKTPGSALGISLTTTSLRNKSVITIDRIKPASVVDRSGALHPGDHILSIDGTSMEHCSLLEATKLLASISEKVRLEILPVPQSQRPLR
Chain of SCRIB_2, Q14160 (Q14160 857-960): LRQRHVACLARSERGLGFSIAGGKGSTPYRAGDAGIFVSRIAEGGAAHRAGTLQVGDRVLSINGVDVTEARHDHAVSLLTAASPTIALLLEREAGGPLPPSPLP
Chain of IL16_3, Q14005 (Q14005 1107-1207): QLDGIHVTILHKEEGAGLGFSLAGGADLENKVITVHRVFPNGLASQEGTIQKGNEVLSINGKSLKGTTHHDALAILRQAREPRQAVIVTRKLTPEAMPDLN
Chain of MAGI1_1, Q96QZ7 (Q96QZ7 1-106): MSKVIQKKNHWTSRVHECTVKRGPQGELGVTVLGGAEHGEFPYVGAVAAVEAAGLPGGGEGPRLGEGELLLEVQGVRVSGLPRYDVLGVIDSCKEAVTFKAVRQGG
Chain of Inadl_1, Q8NI35 (Q8NI35 113-229): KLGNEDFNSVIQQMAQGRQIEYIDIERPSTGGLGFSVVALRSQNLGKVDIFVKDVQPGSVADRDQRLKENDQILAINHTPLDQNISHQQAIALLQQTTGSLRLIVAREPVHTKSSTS
Chain of FRMPD2_3, Q68DX3 (Q68DX3 1073-1166): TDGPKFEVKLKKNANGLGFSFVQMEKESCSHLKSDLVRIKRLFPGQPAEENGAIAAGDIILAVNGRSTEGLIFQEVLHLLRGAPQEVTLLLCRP
Chain of CASK, O14936 (O14936 487-570): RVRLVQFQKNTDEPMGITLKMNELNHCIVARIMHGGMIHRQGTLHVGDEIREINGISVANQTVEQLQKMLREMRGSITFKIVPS
Chain of SCRIB_1, Q14160 (Q14160 718-814): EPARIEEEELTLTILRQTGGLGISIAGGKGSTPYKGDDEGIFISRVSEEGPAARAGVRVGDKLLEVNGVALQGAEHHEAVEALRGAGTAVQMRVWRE
Chain of GRID2IP_1, A4D2P6 (A4D2P6 1-87): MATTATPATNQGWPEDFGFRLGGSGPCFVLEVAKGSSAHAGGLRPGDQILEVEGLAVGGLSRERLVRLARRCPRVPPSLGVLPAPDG
Chain of PDLIM1, O00151 (O00151 1-87): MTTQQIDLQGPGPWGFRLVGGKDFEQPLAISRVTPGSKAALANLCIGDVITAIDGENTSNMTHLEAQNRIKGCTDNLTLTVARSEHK
Chain of Inadl_10, Q8NI35 (Q8NI35 1673-1763): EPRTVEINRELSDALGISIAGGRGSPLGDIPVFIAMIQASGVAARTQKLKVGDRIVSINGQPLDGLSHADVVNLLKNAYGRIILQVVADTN
Chain of GRASP, Q7Z6J2 (Q7Z6J2 96-193): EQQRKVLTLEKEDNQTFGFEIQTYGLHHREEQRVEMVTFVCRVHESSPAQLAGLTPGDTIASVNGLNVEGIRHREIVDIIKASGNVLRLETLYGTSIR

LSDPSVSTVV [GRIN1, Q05586;Q05586-2]
pKd [1, 29]: below the threshold | pKd [2, 29]: 3.94 | pKd [3, 29]: below the threshold | pKd [4, 29]: below the threshold | pKd [5, 29]: below the threshold | pKd [6, 29]: below the threshold | pKd [7, 29]: below the threshold | pKd [8, 29]: below the threshold | pKd [9, 29]: below the threshold | pKd [10, 29]: below the threshold | pKd [11, 29]: below the threshold | pKd [12, 29]: below the threshold | pKd [13, 29]: below the threshold | pKd [14, 29]: 3.98 | pKd [15, 29]: 4.26 | pKd [16, 29]: below the threshold | pKd [17, 29]: below the threshold | pKd [18, 29]: below the threshold | pKd [19, 29]: below the threshold | pKd [20, 29]: below the threshold | pKd [21, 29]: below the threshold | pKd [22, 29]: below the threshold | pKd [23, 29]: below the threshold | pKd [24, 29]: below the threshold | pKd [25, 29]: below the threshold | pKd [26, 29]: below the threshold | pKd [27, 29]: below the threshold | pKd [28, 29]: below the threshold

VSVDDVRSTSQGLSSY [DFNB31_int, Q9P202]
pKd [1, 30]: below the threshold | pKd [2, 30]: below the threshold | pKd [3, 30]: below the threshold | pKd [4, 30]: below the threshold | pKd [5, 30]: below the threshold | pKd [6, 30]: below the threshold | pKd [7, 30]: below the threshold | pKd [8, 30]: below the threshold | pKd [9, 30]: below the threshold | pKd [10, 30]: below the threshold | pKd [11, 30]: below the threshold | pKd [12, 30]: below the threshold | pKd [13, 30]: below the threshold | pKd [14, 30]: below the threshold | pKd [15, 30]: 3.55 | pKd [16, 30]: below the threshold | pKd [17, 30]: below the threshold | pKd [18, 30]: below the threshold | pKd [19, 30]: below the threshold | pKd [20, 30]: below the threshold | pKd [21, 30]: below the threshold | pKd [22, 30]: below the threshold | pKd [23, 30]: below the threshold | pKd [24, 30]: below the threshold | pKd [25, 30]: below the threshold | pKd [26, 30]: below the threshold | pKd [27, 30]: below the threshold | pKd [28, 30]: below the threshold

TVICWPGSLV [LNX2, Q8N448]
pKd [1, 29]: 3.66 | pKd [2, 29]: 4.59 | pKd [3, 29]: 4.73 | pKd [4, 29]: 4.01 | pKd [5, 29]: 4.03 | pKd [6, 29]: below the threshold | pKd [7, 29]: 4.31 | pKd [8, 29]: 3.99 | pKd [9, 29]: 4.03 | pKd [10, 29]: below the threshold | pKd [11, 29]: 3.65 | pKd [12, 29]: 4.35 | pKd [13, 29]: below the threshold | pKd [14, 29]: 4.91 | pKd [15, 29]: 4.24 | pKd [16, 29]: below the threshold | pKd [17, 29]: below the threshold | pKd [18, 29]: 3.9 | pKd [19, 29]: below the threshold | pKd [20, 29]: below the threshold | pKd [21, 29]: below the threshold | pKd [22, 29]: below the threshold | pKd [23, 29]: below the threshold | pKd [24, 29]: below the threshold | pKd [25, 29]: 3.9 | pKd [26, 29]: 3.51 | pKd [27, 29]: below the threshold | pKd [28, 29]: 4.26
